These results are taken from article PMC6497250, “High-resolution cryo-EM structures of the E. coli hemolysin ClyA oligomers” (PLoS ONE, 2019).

Several values for one entry are separate records, joined by “and”; a condition that tells them apart may be missing. Identical values can stand only once.

Data set [1] concerns the molecule itself. As to the kind of experiment: cryo-EM structure; digitonin-induced intermediate state; Talos Arctica; 2D class averages and a map at 16 Å.
Data set [2] deals with the molecule itself. As to the kind of experiment: cryo-EM structure; sample #1: pore complexes in DDM, all SEC fractions pooled; Talos Arctica 200 kV; maps at 6.8 Å and 7.5 Å.
Data set [3] concerns the molecule itself. Briefly: negative staining EM; ClyA incubated with 1% digitonin overnight, fractions from SEC (Superose 6 10/300 GL); intermediate state.
Data set [4] concerns the molecule itself. As to the kind of experiment: cryo-EM structure; sample #3: ClyA 2.5 mg/mL with 0.5% DDM and 5 mM DTT at 4°C overnight, then SEC in 25 mM Tris-HCl pH 8.0, 150 mM NaCl, 0.05% digitonin, 2 mM DTT; Titan Krios 300 kV; C12, C13, C14 classes.

B1: E. coli cytolysin A (ClyA) with complete N-terminal purification tag (natural protein)
chain: MTEIVADKTVEVVKNAIETADGALDLYNKYLDQVIPWQTFDETIKELSRFKQEYSQAASVLVGDIKTLLMDSQDKYFEATQTVYEWCGVATQLLAAYILLFDEYNEKKASAQKDILIKVLDDGITKLNEAQKSLLVSSQSFNNASGKLLALDSQLTNDFSEKSSYFQSQVDKIRKEAYAGAAAGVVAGPFGLIISYSIAAGVVEGKLIPELKNKLKSVQNFFTTLSNTVKQANKDIDAAKLKLTTEIVAIGEIKTETETTRFYVDYDDLMLSLLKEAAKKMINTCNEYQKRHGKKTLFEVPEV
notes: E. coli cytolysin A (ClyA), cDNA amplified from BL21 (DE3), mutations and deletions removed by two-step PCR; final plasmid has A248V compared to UniProtKB P77335; The soluble protein is a monomer; the oligomers (12, 13, 14, about 3) form with detergent; also called hemolysin (HlyE); silent hemolysin A (SheA); source: E. coli BL21 (DE3), purified (Ni2+-NTA, Mono Q anion exchange); not shown: His6, …
One may read the stoichiometry N as the number of molecules, sites or subunits per partner or assembly. For B1, the “stoichiometry N” value in data set [1] is 3 and 4; in data set [2], 12 and 13; in data set [3] it was ~3; in data set [4], 14.
